Measured values from patent US20220033505A1 (Janssen / Centocor, published 2022).

What was measured:
[1] = target: T1, CD3 on human T cells (Jurkat cells, primary human T cells) (human, UniProt P07766 23-207); assay: T cell binding (method not described)
T1 construct: whole, on cells; also called CD3 epsilon; T cell receptor complex

[2] = target: T2, HLA-G1 on K562 cells (K562-HLA-G) (human); assay: K562-HLA-G cell binding (method not described)
T2 construct: also called cells expressing HLA-G

T1 sequence (P07766 23-207): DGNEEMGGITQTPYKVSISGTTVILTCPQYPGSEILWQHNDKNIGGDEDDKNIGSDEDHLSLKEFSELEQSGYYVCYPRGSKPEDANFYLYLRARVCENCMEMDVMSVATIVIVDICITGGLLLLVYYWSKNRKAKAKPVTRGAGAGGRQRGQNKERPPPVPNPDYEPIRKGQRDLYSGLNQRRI

- EC50 [1]: 60 nM
- EC50 [2]: 11 nM
B1: HC3B258 (CD3B376-Fab-Fc x MHGB732-LH-scFv-Fc) (bispecific antibody, human IgG1, lambda, L234A L235A)
heavy: QVQLQQSGPRLVRPSQTLSLTCAISGDSVFNNNAAWSWIRQSPSRGLEWLGRTYYRSKWLYDYAVSVKSRITVNPDTSRNQFTLQLNSVTPEDTALYYCARGYSSSFDYWGQGTLVTVSSASTKGPSVFPLAPSSKSTSGGTAALGCLVKDYFPEPVTVSWNSGALTSGVHTFPAVLQSSGLYSLSSVVTVPSSSLGTQTYICNVNHKPSNTKVDKKVEPKSCDKTHTCPPCPAPEAAGGPSVFLFPPKPKDTLMISRTPEVTCVVVSVSHEDPEVKFNWYVDGVEVHNAKTKPREEQYNSTYRVVSVLTVLHQDWLNGKEYKCKVSNKALPAPIEKTISKAKGQPREPQVYVYPPSREEMTKNQVSLTCLVKGFYPSDIAVEWESNGQPENNYKTTPPVLDSDGSFALVSKLTVDKSRWQQGNVFSCSVMHEALHNHYTQKSLSLSPGK
light: QSALTQPASVSGSPGQSITISCTGTSSNIGTYKFVSWYQQHPDKAPKVLLYEVSKRPSGVSSRFSGSKSGNTASLTISGLQAEDQADYHCVSYAGSGTLLFGGGTKLTVLGQPKAAPSVTLFPPSSEELQANKATLVCLISDFYPGAVTVAWKADSSPVKAGVETTTPSKQSNNKYAASSYLSLTPEQWKSHRSYSCQVTHEGSTVEKTVAPTECS
scFv: DIVMTQSPDSLAVSLGERATINCKSSQSVLHSSNNKNYLTWFQQKPGQPPKLLIYWASTRESGVPDRFSGSGSGTDFTLTISSLQAEDVAVYYCHQYYSTPPTFGQGTKVEIKGGSEGKSSGSGSESKSTGGSQVQLQQSGPGLVKPSQTLSLTCAISGDSVSSNSAAWNWIRQSPSRGLEWLGRTYYRSKWYNDYAVSVKSRITINPDTSKNQISLQLNSVTPEDTAVYYCAGDRRYGIVGLPFAYWGQGTLVTVSSEPKSSDKTHTCPPCPAPEAAGGPSVFLFPPKPKDTLMISRTPEVTCVVVSVSHEDPEVKFNWYVDGVEVHNAKTKPREEQYNSTYRVVSVLTVLHQDWLNGKEYKCKVSNKALPAPIEKTISKAKGQPREPQVYVLPPSREEMTKNQVSLLCLVKGFYPSDIAVEWESNGQPENNYLTWPPVLDSDGSFFLYSKLTVDKSRWQQGNVFSCSVMHEALHNHYTQKSLSLSPGK
